Data reported in PMC6535915 (ASN NEURO, 2019).

Target: T1, connexin 36 (rat (endogenous in supraoptic nucleus), UniProt O70610 1-321)
T1 sequence (looked up): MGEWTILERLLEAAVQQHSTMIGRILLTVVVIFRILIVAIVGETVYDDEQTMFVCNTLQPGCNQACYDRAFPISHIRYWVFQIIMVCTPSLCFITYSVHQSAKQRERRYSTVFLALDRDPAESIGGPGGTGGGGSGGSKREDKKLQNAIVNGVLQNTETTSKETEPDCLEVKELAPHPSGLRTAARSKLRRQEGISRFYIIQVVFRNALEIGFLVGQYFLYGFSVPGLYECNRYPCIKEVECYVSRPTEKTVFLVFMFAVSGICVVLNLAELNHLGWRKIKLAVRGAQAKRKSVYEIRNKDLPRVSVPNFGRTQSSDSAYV
Experiment: co-IP

B1: oxytocin-neurophysin (natural protein, rat (endogenous in supraoptic nucleus), UniProt P01179 20-125, looked up)
chain: CYIQNCPLGGKRAALDLDMRKCLPCGPGGKGRCFGPSICCADELGCFVGTAEALRCQEENYLPSPCQSGQKPCGSGGRCATAGICCSPDGCRTDPACDPESAFSER
fold co-precipitated OT-NP in lactating rats relative to virgin rats: 1.61 fold
